{"source": "patent US9266952B2", "about": "“Antibodies against ROR1 and uses thereof” (KANCERA AB, priority 2010, dated 2016)", "molecules": {"B1": {"name": "010-D06: ROR1 specific mAb, VH SEQ ID NO: 27, VL SEQ ID NO: 28 (FIG. 15) (antibody, listed as Mus musculus, V domains shown)", "VH": "EVQLLESGGGLVQPGGSLRLSCAASGFTFRDYGMHWVRQAPGKGLEWVSAISGSGGSTFYADSVKGRFTISRDNSKNTLYLQMNSLRAEDTAVYYCARGRSAGSMGYFDYWGQGTLVTVSS", "VL": "QSVLTQPPSASGTPGQRVTISCTGSSSNIGAGYDVHWYQQLPGTAPKLLIYGNSNRPSGVPDRFSGSKSGTSASLAISGLRSEDEADYYCAAWDDSLNGWVFGGGTKLTVLG"}}, "tested_on": "primary patient CLL cells", "assay": "Primary patient CLL cells i.v. in irradiated NOD.SCID mice, spleen", "type": "in vivo", "details": "10 mg/kg i.p. from day 5-7 after transfer, sacrificed 3-7 days later, versus isotype control", "method": "Primary patient CLL cells are intravenously injected into immuno-deficient NOD. SCID mice. The CLL cells home to the spleen and there form proliferating clusters, very similar to human disease. After allowing to settle in the spleen for 5-7 days, the mice were treated with 10 mg/kg anti-ROR1 antibodies every third day and terminated after (A) 7 days, n=7 mice/group; (B) 7 days, n=9-10 mice/group; (C) 4 days, n=8 mice/group; (D) 3 days, n=5 mice/group. At termination the number of CLL cells is quantified in spleen using FACS staining of human CD45, CD19 and CD20. Each figure represents cells from individual CLL patients.\nNOD.SCID mice received whole-body irradiation of 1 Gy 1 day prior to injection of primary patient cells.\nPBMCs were isolated from peripheral blood of four CLL patients using the Ficoll Hypaque technique. Thereafter, 100×10^6 cells was injected i.v into irradiated NOD.SCID mice. The mice were treated i.p with 10 mg/kg of the ROR1 specific mAb 009-G03, or irrelevant negative control mAb at day 5-7 after transfer of cells to mice and sacrificed 3-7 days later. […]\nSpleens were dissected out, minced, and lysed for red blood cells. The cell suspension were stained with fluorochrome conjugated mAb's recognizing human CD45, CD19 or CD20 and CLL cells were quantified as being either CD45^+CD19^+ or CD45^+CD20^+. […]", "data": [{"molecule": "B1", "values": [{"measurement": "number of grafted CLL cells in the spleen", "value": "significantly reduces the number of grafted CLL cells in the spleen"}]}]}
